This assay concerns the target BHV-1 virus (Cooper strain). The assay can be described thus: cell-based or functional assay.

B1: recombinant scFv3-18L (scFv)
scFv: QAVLTQPSSVSGSLGQRVSITCSGSSSNIGRYGVGWYQQVPGSGLRRIIYGSVSRPSGVPVRFSGSKSGDTATLTISSLQAEDEADYFCATADYTSSPVLFGSGTTLTVLGQSSRSSSGGGSSGGGGSQVQLRESGPSLVKPSQTLSLTCTVSGFSLSGNSVGWVRQTPGKALEWLGNMDGIGTTDYNPALKSRLSITKDNSKSQVSLSLSSVTTEDTATYYCAKCTGAYCWRFDDAYGYDDWGQGLLVTVSS
On to B1, for which the 50% viral neutralization end point was determined as 5.5 µg/mL; the Percent Plaque reduction at 11 µg/ml, Experiment I is 78.7%; the Percent Plaque reduction at 11 µg/ml, Experiment II was found to be 80%; the Percent Plaque reduction at 33 µg/ml, Experiment I worked out at 89.3%. For the same molecule, the Percent Plaque reduction at 33 µg/ml, Experiment II amounted to 90.5%; the Percent Plaque reduction at 99 µg/ml, Experiment I came to 93.4%; the Percent Plaque reduction at 99 µg/ml, Experiment II turned out to be 94.7%.

B2: recombinant scFv4m-18L (scFv)
scFv: QAVLTQPSSVSGSLGQRVSITCSGSSSNIGRYGVGWYQQVPGSGLRRIIYGSVSRPSGVPVRFSGSKSGDTATLTISSLQAEDEADYFCATADYTSSPVLFGSGTTLTVLGQSSRSSGGGGSSGGGGSQVQLRESGPSLVKPSQTLSLTCTVSGFSLSGNSVGWVRQTPGKALEWLGNMDGIGTTDYNPALKSRLSITKDNSKSQVSLSLSSVTTEGTATYYCAKCTGAYCWRFDDAYGYDDWGQGLLVTVSS
On to B2, for which the 50% viral neutralization end point is 15 µg/mL; the Percent Plaque reduction at 15 µg/ml, Experiment I turned out to be 55.8%; the Percent Plaque reduction at 15 µg/ml, Experiment II was 48.5%; the Percent Plaque reduction at 45 µg/ml, Experiment I is 67%. Further, the Percent Plaque reduction at 45 µg/ml, Experiment II was 70%; the Percent Plaque reduction at 135 µg/ml, Experiment I came out at 92.4%; the Percent Plaque reduction at 135 µg/ml, Experiment II amounted to 92.6%; the fold higher protein concentration required for virus neutralization, compared with wild type scFv with either 7 or 18 amino acid linker is 2.7 to 5 fold.

B3: recombinant scFv1-7L (scFv)
scFv: QAVLTQPSSVSGSLGQRVSITCSGSSSNIGRYGVGWYQQVPGSGLRRIIYGSVSRPSGVPVRFSGSKSGDTATLTISSLQAEDEADYFCATADYTSSPVLFGSGTTLTVLGQSSRSSQVQLRESGPSLVKPSQTLSLTCTVSGFSLSGNSVGWVRQTPGKALEWLGNMDGIGTTDYNPALKSRLSITKDNSKSQVSLSLSSVTTEDTATYYCAKCTGAYCWRFDDAYGYDDWGQGLLVTVSS
In turn, B3 returned a 50% viral neutralization end point of 3 µg/mL; a Percent plaque reduction at 24 µg/ml, Experiment I of 86.3%; a Percent plaque reduction at 24 µg/ml, Experiment II of 84.8%; a Percent plaque reduction at 72 µg/ml, Experiment I of 95.9%. The Percent plaque reduction at 72 µg/ml, Experiment II worked out at 94.2%; the Percent plaque reduction at 216 µg/ml, Experiment I was found to be 100%; the Percent plaque reduction at 216 µg/ml, Experiment II worked out at 100%.

The values are drawn from patent US20100196375A1.
